Results as given in US20040171105.

Assays:
[1] = biological target: GST fusion form of full-length human cIAP1, Q13490
[2] = biological target: GST fusion form of full-length human XIAP, P98170
[3] = biological target: T1, Smac (purified recombinant), Q9NR28
T1 chain: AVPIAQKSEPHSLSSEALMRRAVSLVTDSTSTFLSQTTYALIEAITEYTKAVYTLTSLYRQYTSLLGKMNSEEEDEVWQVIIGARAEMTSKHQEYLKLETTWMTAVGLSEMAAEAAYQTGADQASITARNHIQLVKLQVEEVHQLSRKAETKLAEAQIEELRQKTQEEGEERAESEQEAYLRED

[4] = biological target: T2, Livin β (human, N-terminal hexa-His tagged), Q96CA5
T2 chain: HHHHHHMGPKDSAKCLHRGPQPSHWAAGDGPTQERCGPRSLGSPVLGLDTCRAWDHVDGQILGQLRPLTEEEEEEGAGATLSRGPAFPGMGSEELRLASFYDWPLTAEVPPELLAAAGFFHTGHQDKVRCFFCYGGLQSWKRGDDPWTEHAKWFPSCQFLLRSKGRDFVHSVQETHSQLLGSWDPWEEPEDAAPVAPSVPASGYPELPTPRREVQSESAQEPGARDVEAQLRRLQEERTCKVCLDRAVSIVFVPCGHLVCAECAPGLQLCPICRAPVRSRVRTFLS

[5] = biological target: T3, Livin α (human, N-terminal hexa-His tagged), Q96CA5
T3 chain: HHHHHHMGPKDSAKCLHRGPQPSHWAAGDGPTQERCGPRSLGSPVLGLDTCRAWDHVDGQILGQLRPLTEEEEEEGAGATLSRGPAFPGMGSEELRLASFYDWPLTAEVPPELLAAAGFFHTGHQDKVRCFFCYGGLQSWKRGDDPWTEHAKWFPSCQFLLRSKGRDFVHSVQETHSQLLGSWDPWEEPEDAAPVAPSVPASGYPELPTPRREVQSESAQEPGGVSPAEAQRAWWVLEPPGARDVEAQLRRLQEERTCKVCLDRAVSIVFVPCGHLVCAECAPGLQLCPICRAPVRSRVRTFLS

[6] = biological target: mutant cIAP1 (recombinant cIAP1 mutated at the three preferred Omi cleavage sites, GST fusion) [GST: P08515]
[7] = biological target: GST fusion form of full-length human cIAP2, Q13489
[8] = biological target: T4, GST fusion form of full-length Drosophila DIAP1, Q24306
T4 chain: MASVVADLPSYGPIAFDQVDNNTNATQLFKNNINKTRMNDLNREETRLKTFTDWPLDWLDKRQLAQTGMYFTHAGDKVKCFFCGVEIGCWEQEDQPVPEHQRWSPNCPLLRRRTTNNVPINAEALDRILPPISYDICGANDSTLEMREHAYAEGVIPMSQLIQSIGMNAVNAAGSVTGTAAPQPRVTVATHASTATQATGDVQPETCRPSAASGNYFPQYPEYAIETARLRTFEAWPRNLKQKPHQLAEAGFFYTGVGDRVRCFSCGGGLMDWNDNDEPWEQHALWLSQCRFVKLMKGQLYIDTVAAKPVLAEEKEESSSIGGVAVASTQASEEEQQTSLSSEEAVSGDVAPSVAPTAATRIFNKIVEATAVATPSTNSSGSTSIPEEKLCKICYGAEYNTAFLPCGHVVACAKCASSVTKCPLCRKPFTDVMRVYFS

Chain of GST fusion form of full-length human cIAP1, Q13490 (Q13490 whole entry, the tested form may be a part): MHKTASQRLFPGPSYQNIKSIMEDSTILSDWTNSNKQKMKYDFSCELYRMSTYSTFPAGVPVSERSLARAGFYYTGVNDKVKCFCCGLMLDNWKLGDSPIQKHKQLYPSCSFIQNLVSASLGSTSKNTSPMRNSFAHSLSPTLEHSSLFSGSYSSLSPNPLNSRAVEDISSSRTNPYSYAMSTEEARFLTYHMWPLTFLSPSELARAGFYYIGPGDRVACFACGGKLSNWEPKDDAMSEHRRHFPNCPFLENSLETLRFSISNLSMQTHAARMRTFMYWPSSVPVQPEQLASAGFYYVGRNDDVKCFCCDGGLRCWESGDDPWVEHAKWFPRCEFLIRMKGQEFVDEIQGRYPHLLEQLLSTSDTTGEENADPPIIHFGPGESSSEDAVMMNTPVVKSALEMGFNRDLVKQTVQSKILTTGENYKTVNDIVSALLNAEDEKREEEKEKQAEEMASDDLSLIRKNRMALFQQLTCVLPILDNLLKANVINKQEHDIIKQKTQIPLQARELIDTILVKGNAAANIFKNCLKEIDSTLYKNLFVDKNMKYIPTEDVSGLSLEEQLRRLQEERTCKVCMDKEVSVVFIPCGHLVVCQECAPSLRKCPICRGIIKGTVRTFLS
Chain of GST fusion form of full-length human XIAP, P98170 (P98170 whole entry, the tested form may be a part): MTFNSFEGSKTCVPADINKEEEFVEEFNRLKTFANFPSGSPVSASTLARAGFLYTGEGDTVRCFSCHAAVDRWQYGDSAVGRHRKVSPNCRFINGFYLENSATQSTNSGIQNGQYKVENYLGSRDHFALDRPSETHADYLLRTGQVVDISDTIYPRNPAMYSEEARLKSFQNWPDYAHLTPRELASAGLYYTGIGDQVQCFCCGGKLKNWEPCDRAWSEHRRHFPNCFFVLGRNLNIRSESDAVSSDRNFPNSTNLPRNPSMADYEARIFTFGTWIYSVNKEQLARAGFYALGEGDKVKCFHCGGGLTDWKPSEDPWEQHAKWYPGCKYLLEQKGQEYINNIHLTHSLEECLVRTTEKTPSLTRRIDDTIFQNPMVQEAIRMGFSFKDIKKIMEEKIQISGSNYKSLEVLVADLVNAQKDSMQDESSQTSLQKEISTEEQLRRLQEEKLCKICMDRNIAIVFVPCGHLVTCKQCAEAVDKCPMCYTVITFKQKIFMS
Chain of Survivin, O15392 (O15392 whole entry, looked up): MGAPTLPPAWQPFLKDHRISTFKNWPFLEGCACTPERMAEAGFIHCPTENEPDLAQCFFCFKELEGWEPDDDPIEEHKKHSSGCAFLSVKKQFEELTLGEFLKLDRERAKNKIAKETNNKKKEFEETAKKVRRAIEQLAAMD
Chain of GST fusion form of full-length human cIAP2, Q13489 (Q13489 whole entry, the tested form may be a part): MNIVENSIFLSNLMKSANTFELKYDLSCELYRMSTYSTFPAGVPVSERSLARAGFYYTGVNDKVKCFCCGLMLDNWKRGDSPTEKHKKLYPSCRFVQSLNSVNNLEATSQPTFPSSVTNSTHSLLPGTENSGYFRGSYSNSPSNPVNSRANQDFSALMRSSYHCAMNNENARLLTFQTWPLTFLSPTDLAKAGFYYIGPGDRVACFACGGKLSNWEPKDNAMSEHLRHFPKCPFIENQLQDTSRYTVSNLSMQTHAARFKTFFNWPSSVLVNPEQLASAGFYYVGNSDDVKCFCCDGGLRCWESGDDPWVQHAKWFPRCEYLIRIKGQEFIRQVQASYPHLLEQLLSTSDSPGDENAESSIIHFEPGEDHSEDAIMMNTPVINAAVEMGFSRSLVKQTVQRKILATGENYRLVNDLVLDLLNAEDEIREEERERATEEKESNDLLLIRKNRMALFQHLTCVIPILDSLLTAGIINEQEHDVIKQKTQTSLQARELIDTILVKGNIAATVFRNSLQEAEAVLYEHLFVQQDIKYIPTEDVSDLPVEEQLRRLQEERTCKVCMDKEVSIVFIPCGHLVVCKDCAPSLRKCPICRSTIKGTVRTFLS

B1: OmiΔPDZ (Omi with the PDZ domain deleted, C-terminal hexa-His tagged) (protein)
chain: AVPSPPPASPRSQYNFIADVVEKTAPAVVYIEILDRHPFLGREVPISNGSGFVVAADGLIVTNAHVVADRRRVRVRLLSGDTYEAVVTAVDPVADIATLRIQTKEPLPTLPLGRSADVRQGEFVVAMGSPFALQNTITSGIVSSAQRPARDLGLPQTNVEYIQTDAAIDFGNSGGPLVNLDGEVIGVNTMKVTAGISFAIPSDRLREFLHRGEKKNSSSGISGSQHHHHHH
cleavage of cIAP1 in vitro (SDS-PAGE, silver staining) [1]: The Omi?PDZ at 2.5 nM cleaved the full-length cIAP1 molecules into smaller fragments, whereas the Omi WT enzyme, at the same concentration, still left some uncleaved full-length cIAP1 molecules

B2: endogenous caspase-9 of HeLa S100 extract, activated by dATP and cytochrome c (protein)
chain: MDEADRRLLRRCRLRLVEELQVDQLWDALLSRELFRPHMIEDIQRAGSGSRRDQARQLIIDLETRGSQALPLFISCLEDTGQDMLASFLRTNRQAAKLSKPTLENLTPVVLRPEIRKPEVLRPETPRPVDIGSGGFGDVGALESLRGNADLAYILSMEPCGHCLIINNVNFCRESGLRTRTGSNIDCEKLRRRFSSLHFMVEVKGDLTAKKMVLALLELAQQDHGALDCCVVVILSHGCQASHLQFPGAVYGTDGCPVSVEKIVNIFNGTSCPSLGGKPKLFFIQACGGEQKDHGFEVASTSPEDESPGSNPEPDATPFQEGLRTFDQLDAISSLPTPSDIFVSYSTFPGFVSWRDPKSGSWYVETLDDIFEQWAHSEDLQSLLLRVANAVSVKGIYKQMPGCFNFLRKKLFFKTS
caspase activity in HeLa extracts (cleavage of 35S-labeled procaspase-3) [1]: Caspase activity was completely inhibited by 250 nM of cIAP1

B3: OmiΔ8 (Omi without the AVPS tetrapeptide, C-terminal hexa-His tagged) (protein)
chain: PPPASPRSQYNFIADVVEKTAPAVVYIEILDRHPFLGREVPISNGSGFVVAADGLIVTNAHVVADRRRVRVRLLSGDTYEAVVTAVDPVADIATLRIQTKEPLPTLPLGRSADVRQGEFVVAMGSPFALQNTITSGIVSSAQRPARDLGLPQTNVEYIQTDAAIDFGNSGGPLVNLDGEVIGVNTMKVTAGISFAIPSDRLREFLHRGEKKNSSSGISGSQRRYIGVMMLTLSPSILAELQLREPSFPDVQHGVLIHKVILGSPAHRAGLRPGDVILAIGEQMVQNAEDVYEAVRTQSQLAVQIRRGRETLTLYVTPEVTEHHHHHH
cleavage of cIAP1 in vitro (SDS-PAGE, silver staining) [1]: A concentration (25 nM), 10-fold higher than the wild-type, was required to cleave IAP
proteolytic efficiency against Omi WT [1]: The proteolytic efficiency of Omi?8 was, therefore, 10-fold lower than that of Omi WT regarding cIAP1 cleavage

B4: Omi WT (wild-type mature Omi/HtrA2, C-terminal hexa-His tagged, recombinant from E. coli) (protein)
chain: AVPSPPPASPRSQYNFIADVVEKTAPAVVYIEILDRHPFLGREVPISNGSGFVVAADGLIVTNAHVVADRRRVRVRLLSGDTYEAVVTAVDPVADIATLRIQTKEPLPTLPLGRSADVRQGEFVVAMGSPFALQNTITSGIVSSAQRPARDLGLPQTNVEYIQTDAAIDFGNSGGPLVNLDGEVIGVNTMKVTAGISFAIPSDRLREFLHRGEKKNSSSGISGSQRRYIGVMMLTLSPSILAELQLREPSFPDVQHGVLIHKVILGSPAHRAGLRPGDVILAIGEQMVQNAEDVYEAVRTQSQLAVQIRRGRETLTLYVTPEVTEHHHHHH
cleavage of IAP in vitro [2]: the wild-type Omi cleaved various forms of IAP proteins, including cIAP1, cIAP2, XIAP, Livin α and Livin β
proteolytic processing of Smac by Omi [3]: Smac, therefore, was not cleavable by Omi
cleavage of Livin in vitro (Western blot, anti-Livin) [4]: Omi WT cleaved Livin α and Livin β
cleavage of Livin in vitro (Western blot, anti-Livin) [5]: Omi WT cleaved Livin α and Livin β
IAP cleavage and caspase reactivation in HeLa S100 extracts [1]: Omi at 75 or 10 nM resulted in similar amount IAP cleavage and caspase reactivation for mutant and wild-type cIAP1, respectively
cleavage of cIAP1 in vitro (SDS-PAGE, silver staining) [1]: Wild-type Omi (Omi WT) protein at 2.5 nM (nano Molar) almost completely cleaved 50 nM cIAP1
IAP cleavage and caspase reactivation in HeLa S100 extracts [6]: Omi at 75 or 10 nM resulted in similar amount IAP cleavage and caspase reactivation for mutant and wild-type cIAP1, respectively
resistance to Omi protease against wild-type cIAP1 [6]: mutant cIAP1 is ˜7.5-fold more resistant to Omi protease
cleavage of IAP in vitro [7]: the wild-type Omi cleaved various forms of IAP proteins, including cIAP1, cIAP2, XIAP, Livin α and Livin β
cleavage in vitro (Western blot, anti-Survivin; 25 nM Survivin, 150 nM Omi WT) (Survivin, O15392): This cleavage activity, however, was absent for Survivin
cleavage of IAP in vitro [8]: As shown in FIG. 1A, Omi WT cleaved IAP proteins

B5: Omi SA (protease dead mutant Omi S306→Ala, C-terminal hexa-His tagged) (protein)
chain: AVPSPPPASPRSQYNFIADVVEKTAPAVVYIEILDRHPFLGREVPISNGSGFVVAADGLIVTNAHVVADRRRVRVRLLSGDTYEAVVTAVDPVADIATLRIQTKEPLPTLPLGRSADVRQGEFVVAMGSPFALQNTITSGIVSSAQRPARDLGLPQTNVEYIQTDAAIDFGNAGGPLVNLDGEVIGVNTMKVTAGISFAIPSDRLREFLHRGEKKNSSSGISGSQRRYIGVMMLTLSPSILAELQLREPSFPDVQHGVLIHKVILGSPAHRAGLRPGDVILAIGEQMVQNAEDVYEAVRTQSQLAVQIRRGRETLTLYVTPEVTEHHHHHH
cleavage of cIAP1 in vitro (Western blot, anti-GST) [1]: Omi WT cleaved the cIAP1, but the Omi SA did not
